Measured values: the supplement of paper PMC10567573
± gives the standard deviation.

Test: protein stability index of a GFP-peptide fusion (GPS, HEK-293T) (PSI 1-6); higher = more stable
[1] = treatment: DMSO, c terminus: a fixed tail appended
[2] = treatment: MLN4924 1 uM, 8 h, c terminus: a fixed tail appended
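Note: 24-mer peptide tiles fused after GFP, lentivirally expressed, FACS-sorted into six equal bins by GFP/DsRed ratio, decoded by Illumina sequencing, PSI is the read-weighted mean bin number.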

Sequence	protein stability index [1]	protein stability index [2]	protein stability index (treatment: DMSO, c terminus: native)	protein stability index (treatment: MLN4924 1 uM, 8 h, c terminus: native)
LRAQVPFEQILSLPELKANPFKER [CIB1]	3.17 ± 0.29	3.1 ± 0.42		
LRDVNHEKAMAEWVKQQAEREAEK [SDE2]	5.19 ± 0.12	5.42 ± 0.23		
LRPRPASSISLPIGHLGCISLLS [DMRTC1]			2.47 ± 0.41	2.43 ± 0.33
LSDTELTTLLRRYNIPHGPVVGST [EMD]	2.74 ± 0.38	2.69 ± 0.26		
LSLIARFSPIAIDGMSGLAGVGLS [ELAVL3]	2.7 ± 0.73	2.48 ± 0.42		
LSMDEKVELYRIKFKESFAEMNRG [COX4I1]	2.9 ± 0.2	2.97 ± 0.21		
LSMERYALVFGVNTFIALALQTLL [SLC19A2]	3.04 ± 0.22	2.93 ± 0.53		
LSRQEFLGMVGLFGTIISGIQLLI [SLC35F2]	2.28 ± 0.25	2.09 ± 0.33		
LSTPKPLVDFCNKPILLHQVEALA [GMPPB]	2.54 ± 0.3	2.52 ± 0.41		
LTCDSAQKCHSIGETDEVTKTEDR [ZSCAN9]	5.27 ± 0.34	5.59 ± 0.13		
LTSDLYAPMVAGALARLGTVTVIS [SLC25A39]	2.92 ± 0.4	2.67 ± 0.69		
LVCTADGDIHLSPEEPAASTDPNI [TAF7L]	4.85 ± 0.2	4.89 ± 0.22		
LVEELSPASEKKPVPPSEGKSRLS [BCL2L13]	5.32 ± 0.31	5.46 ± 0.15		
LVKDNPQRSYFLRIFDIKDGKLLW [WASL]	1.99 ± 0.28	2.05 ± 0.36		
LVLRRQLKNKCCPPPCKFGEGKLS [C22orf31]	2.21 ± 0.31	2.52 ± 0.34		
LVMEGTDDGRLLEYDTVTREVKVL [APMAP]	3.5 ± 0.21	3.58 ± 0.37		
LVNHVNIRLQAELEEGENPVPAFQ [SMG5]	4.04 ± 0.091	4.07 ± 0.17		
LVQLDDYRFASAGDDGIVVVWNAQ [WDR41]	2.64 ± 0.28	2.87 ± 0.31		
LVQLEDEITTLRQVLSAKERHLVE [TPD52L1]	2.85 ± 0.16	3.04 ± 0.44		
LWGRTQEEAEELAKEMSVPFYTSR [GFOD1]	3.4 ± 0.18	3.61 ± 0.32		
LYPALKGVNTVFHCASPPPSSNNK [NSDHL]	3.47 ± 0.064	3.52 ± 0.16		
LYSRTGDIVEFVCKSGYHPTKSHS [CFHR2]	2.15 ± 0.16	2.45 ± 0.4		
LYSSSLGGGVATSPMLIVFHGKYS [GLT8D2]	2.38 ± 0.48	2.44 ± 0.52		

Sequence	protein stability index [1]	protein stability index [2]	protein stability index (treatment: DMSO, c terminus: native)	protein stability index (treatment: MLN4924 1 uM, 8 h, c terminus: native)
LYVLKGGYKEFFMKCQSYCEPPSY [CDC25A]	2.62 ± 0.68	2.65 ± 0.27		
MAAAQEADGARSAVVAAGGGSSGQ [CLPTM1]	5.36 ± 0.26	5.29 ± 0.2		
MADKAKPAKAANRTPPKSPGDPSK [TPPP]	5.22 ± 0.25	5.39 ± 0.15		
MAERLEDSVLKGMQAASSKMVSAE [SDE2]	4.54 ± 0.36	4.55 ± 0.24		
MAGAIAQGLIRAGKVEAQHILASA [PYCR3]	2.18 ± 0.18	2.31 ± 0.32		
MARVAWGLLWLLLGSAGAQYEKYS [P3H4]	3.18 ± 0.83	3.16 ± 0.48		
MASRAGPRAAGTDGSDFQHRERVA [JAGN1]	4.67 ± 0.31	4.7 ± 0.13		
MASSAASSEHFEKLHEIFRGLHED [VTI1B]	4.29 ± 0.16	4.28 ± 0.1		
MAYDQFLAICRPLTYSTRMSQTVQ [OR3A1]	2.25 ± 0.33	2.21 ± 0.29		
MDPGWGQRDVGWAALLILFAASLL [C2CD2L]	2.34 ± 0.24	2.26 ± 0.31		
MFSFNMFDHPIPRVFQNRFSTQYR [UFD1]	2.13 ± 0.17	2.22 ± 0.22		
MGSLSSRVLRQPRPALAQQAQGAR [GMCL1]	4.46 ± 0.28	4.56 ± 0.18		
MGSQGSPVKSYDYLLKFLLVGDSD [RAB40C]	2.29 ± 0.28	2.37 ± 0.099		
MHANVEDRGIKGDITPLMAAANGG [ANKRD17]	4.58 ± 0.14	4.67 ± 0.086		
MHLNFMDEKDRIITAFYNEARARA [DNAJC4]	2.92 ± 0.35	2.98 ± 0.19		
MLNEPLVREIVKECSNIPLSQPQQ [GAN]	3.85 ± 0.2	3.95 ± 0.077		
MLSLKKYLTEGLLQFTILLSLIGV [NFE2L1]	3.33 ± 0.27	2.82 ± 0.47		
MMLFNDGTFQVNFYHDHTKIIICS [PLK2]	2.79 ± 0.83	2.88 ± 0.86		
MPCLLMELRRDSSESQLASTESDK [C18orf25]	4.73 ± 0.05	4.55 ± 0.22		
MRGRIYLEPPTMRKKRLLDRKVLL [GOLPH3L]	2.34 ± 0.27	2.47 ± 0.29		
MSELFLHTPSDTGVSFQAISSMAD [PKD2L1]	3.41 ± 0.15	3.61 ± 0.27		
MSFVAGVIRRLDETVVNRIAAGEV [MLH1]	2.85 ± 0.35			
